38 substances from the Human Domainome abundance scans (Beltran et al. 2025) can be followed below.

± gives the uncertainty stated by the source.

The data set can be described thus: abundance fitness (aPCA) (normalised: wild type 0, dead -1); higher = more abundant; growth selection in yeast, the domain comes from the species named. Particulars: Homo sapiens.
The substance “Scaffold attachment factor B2 A40D, Q14151” registered an abundance fitness of -0.409 ± 0.25.
On to “Scaffold attachment factor B2 A40E, Q14151”, for which the abundance fitness worked out at 0.022 ± 0.097.
As to “Scaffold attachment factor B2 A40G, Q14151”, the abundance fitness is -0.233 ± 0.1.
The figure for “Scaffold attachment factor B2 A40L, Q14151” is -0.292 ± 0.12; for “Scaffold attachment factor B2 A40M, Q14151” it is 0.613 ± 0.36; for “Scaffold attachment factor B2 A40P, Q14151” it is -0.433 ± 0.22.
On to “Scaffold attachment factor B2 A40R, Q14151”, for which the abundance fitness is -0.368 ± 0.13.
For the substance “Scaffold attachment factor B2 A40S, Q14151”, the abundance fitness is -0.168 ± 0.12.
The substance “Scaffold attachment factor B2 A40T, Q14151” displayed an abundance fitness of -0.561 ± 0.17.
“Scaffold attachment factor B2 A40W, Q14151” had an abundance fitness of -0.135 ± 0.31.
With “Scaffold attachment factor B2 A40Y, Q14151”, the abundance fitness is -0.387 ± 0.11.
In the case of “Scaffold attachment factor B2 A63C, Q14151” it was -0.235 ± 0.19; in that of “Scaffold attachment factor B2 A63E, Q14151”, -0.325 ± 0.12; in that of “Scaffold attachment factor B2 A63F, Q14151”, -0.628 ± 0.18.
“Scaffold attachment factor B2 A63G, Q14151” gave an abundance fitness of -0.324 ± 0.083.
In turn, “Scaffold attachment factor B2 A63I, Q14151” showed an abundance fitness of -0.546 ± 0.16.
Consider “Scaffold attachment factor B2 A63K, Q14151”, for which the abundance fitness was -0.695 ± 0.15.
For the substance “Scaffold attachment factor B2 A63L, Q14151”, the abundance fitness is -0.984 ± 0.16.
The figure for “Scaffold attachment factor B2 A63M, Q14151” is -0.649 ± 0.13; for “Scaffold attachment factor B2 A63P, Q14151” it is -0.608 ± 0.13; for “Scaffold attachment factor B2 A63Q, Q14151” it is -0.292 ± 0.11.
The figure for “Scaffold attachment factor B2 A63R, Q14151” is -0.433 ± 0.089.
“Scaffold attachment factor B2 A63S, Q14151” had an abundance fitness of -0.367 ± 0.13.
Consider “Scaffold attachment factor B2 A63T, Q14151”, for which the abundance fitness is -0.44 ± 0.13.
In the case of “Scaffold attachment factor B2 A63V, Q14151” it was -0.175 ± 0.11.
In the case of “Scaffold attachment factor B2 A63W, Q14151” it was -0.63 ± 0.11.
In the case of “Scaffold attachment factor B2 D37A, Q14151”, the abundance fitness is -0.513 ± 0.091.
In the case of “Scaffold attachment factor B2 D37C, Q14151” it was -0.548 ± 0.12; in that of “Scaffold attachment factor B2 D37E, Q14151”, -0.012 ± 0.095.
For the substance “Scaffold attachment factor B2 D37F, Q14151”, the abundance fitness was -0.737 ± 0.12.
As for “Scaffold attachment factor B2 D37G, Q14151”, the abundance fitness is -0.602 ± 0.076.
In the case of “Scaffold attachment factor B2 D37H, Q14151” it was -0.865 ± 0.16.
The substance “Scaffold attachment factor B2 D37K, Q14151” registered an abundance fitness of -1.19 ± 0.18.
“Scaffold attachment factor B2 D37L, Q14151”: the abundance fitness was -0.9 ± 0.14.
“Scaffold attachment factor B2 D37M, Q14151” yielded an abundance fitness of -1 ± 0.21.
The substance “Scaffold attachment factor B2 D37N, Q14151” came in with an abundance fitness of -0.883 ± 0.23.
The substance “Scaffold attachment factor B2 D37P, Q14151” yielded an abundance fitness of -0.463 ± 0.14.
Substance “Scaffold attachment factor B2 D37Q, Q14151” registered an abundance fitness of -0.514 ± 0.11.
